Data from US20080219983A1 (TRIMESTER CUSHION, published 2008).

Columns and labels:
[1] = target: T1, Plasma-derived FVIII light chain (UniProt P00451 1668-2351); test: solid-phase competition assay: FVIII light chain (25 nM) on immobilised LRP cluster II (1 pmol/well) in the presence of scFv KM33 (0-30 nM); detection with peroxidase-conjugated CLB-CAg 12
T1 construct: domain: light chain (a3-A3-C1-C2); Prepared from plasma as in the cited literature; Human by context (the peptides are said to cover human FVIII regions); Residue numbers count on mature FVIII, without the signal peptide; also called LCh; 80-kDa light chain (a3-A3-C1-C2)
T1 sequence (looked up): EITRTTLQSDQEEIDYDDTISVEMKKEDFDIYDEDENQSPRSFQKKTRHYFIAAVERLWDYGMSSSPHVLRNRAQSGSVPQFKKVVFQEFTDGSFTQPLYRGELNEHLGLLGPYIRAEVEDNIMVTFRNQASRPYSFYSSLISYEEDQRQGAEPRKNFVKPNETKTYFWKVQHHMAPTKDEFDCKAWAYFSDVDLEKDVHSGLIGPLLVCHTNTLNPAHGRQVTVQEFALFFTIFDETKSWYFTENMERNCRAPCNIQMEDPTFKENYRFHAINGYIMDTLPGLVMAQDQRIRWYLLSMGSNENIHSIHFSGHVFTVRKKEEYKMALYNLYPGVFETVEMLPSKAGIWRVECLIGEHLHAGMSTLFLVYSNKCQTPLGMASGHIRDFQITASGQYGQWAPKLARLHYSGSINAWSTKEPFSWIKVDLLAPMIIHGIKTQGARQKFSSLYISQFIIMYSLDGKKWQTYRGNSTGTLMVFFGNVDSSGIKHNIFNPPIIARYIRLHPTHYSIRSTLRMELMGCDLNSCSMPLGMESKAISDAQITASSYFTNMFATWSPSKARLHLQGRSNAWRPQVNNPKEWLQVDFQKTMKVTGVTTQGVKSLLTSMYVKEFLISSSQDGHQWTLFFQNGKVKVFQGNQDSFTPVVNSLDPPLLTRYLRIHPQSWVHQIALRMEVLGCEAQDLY
Procedure: (§1) FIG. 5. […] Data represent the mean ±S.D. of three experiments.
(§2) Solid-phase Binding Assays—Recombinant LRP clusters II or IV (1 pmol/well) were adsorbed onto microtiter wells in 50 mM NaHCO₃ (pH 9.8) in a volume of 50 μl for 16 h at 4° C. Wells were blocked with 2% (w/v) HSA, 150 mM NaCl, 5 mM CaCl₂, and 50 mM Tris (pH 7.4) in a volume of 200 μl for 1 h at 37° C. […] Bound ligand was detected by incubating with peroxidase-conjugated monoclonal antibody CLB-CAg 12 in the same buffer for 15 min at 37° C. […] Residual FVIII binding was detected as described above.

[2] = target: T1, Plasma-derived FVIII light chain; test: solid-phase competition: scFv KM33 (0-30 nM) against FVIII light chain (25 nM) binding to immobilised LRP cluster II (FIG. 5)
Procedure: as §1, §2

- IC50 (read off the curve) [1]: ~7 nM
- Ki [2]: ~5 nM
B1: scFv KM33 (scFv)
scFv: EVQLVESGGGVVQPGRSLRLSCVDSGLTFSSYGMHWVRQAPGAGLEWVAVISYDGNDKYYADSVKGRFAISRDNAKNTLYLQMNSLTIEDTAVYYCAKDLIESNIAEAFWGQGTLVTVSSGGGGSGGGGSGGGGSDIQMTQSPSSLSASVGDTVTIACRASRDIRNDLAWYQQKPGKAPKLLIYATSRLQSGVPSRFSGSGSFTDFTLTINSLQPDDSATYYCLQDSDYPLTFGGGTKVDIKRAAAEQKLISEEDLNGAAHHHHHH
notes: Expressed in E. coli TG1
